Assay results reported in US11884740.

What was measured:
[1] = biological target: FcγIIIA Receptor on the effector cells (human) (UniProt P08637); test: cell-based or functional assay
[2] = biological target: C1q Receptor in the complement system (rabbit serum as the source of complement) (rabbit); test: cell-based or functional assay

FcγIIIA Receptor on the effector cells (human), sequence (P08637 17-254): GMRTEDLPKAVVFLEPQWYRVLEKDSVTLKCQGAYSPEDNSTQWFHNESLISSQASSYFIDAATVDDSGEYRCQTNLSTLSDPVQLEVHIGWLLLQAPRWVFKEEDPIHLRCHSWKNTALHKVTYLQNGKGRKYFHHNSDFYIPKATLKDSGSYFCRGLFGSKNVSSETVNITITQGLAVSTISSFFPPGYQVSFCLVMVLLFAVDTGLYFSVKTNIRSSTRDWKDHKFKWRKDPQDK

EC50 (ADCC, Raji targets, KILR CD16a effector cells) [1] | EC50 (CDC, Jeko-1 cells, rabbit complement) [2] | EC50 of ADCC assay Using Primary NK Cells (Raji targets, LDH release) [1] | Substance
0.0608 ng/mL | 1.21 µg/mL | – | OCREVUS (ocrelizumab) (antibody)
0.0741 ng/mL | 0.353 µg/mL | 500 µg/mL | ARZERRA (ofatumumab) (antibody)
0.00658 ng/mL | – | 19 µg/mL | GAZYVA (obinutuzumab) (antibody)
5.46 ng/mL | 0.245 µg/mL | 1390 µg/mL | RITUXAN (rituximab) (antibody)
